The text below walks through data of patent US11844843 (DYNE THERAPEUTICS, dated 2023).

Assay [1] concerns the target T1, recombinant human TfR1 (transferrin receptor protein 1) (human, UniProt P02786 89-760).
T1 construct: Recombinant protein in SPR and ELISA; they were assigned to this molecule; also called hTfR1; huTfR1
Nature of the assay: Biacore, d25; TfR1 species not stated.

In assay [2] the target is T1, recombinant human TfR1 (transferrin …). Nature of the assay: ELISA, recombinant TfR1 coated, unconjugated Fab (row 'Fab binding affinity ELISA').
Assay [3] has as its target T2, recombinant cynomolgus monkey (Macaca fascicularis) TfR1 (cynomolgus monkey (Macaca fascicularis), UniProt Q5RDH6 87-760 (Pongo abelii entry), limits assumed).
T2 construct: Recombinant protein; also called cTfR1; cyTfR1
T2 chain: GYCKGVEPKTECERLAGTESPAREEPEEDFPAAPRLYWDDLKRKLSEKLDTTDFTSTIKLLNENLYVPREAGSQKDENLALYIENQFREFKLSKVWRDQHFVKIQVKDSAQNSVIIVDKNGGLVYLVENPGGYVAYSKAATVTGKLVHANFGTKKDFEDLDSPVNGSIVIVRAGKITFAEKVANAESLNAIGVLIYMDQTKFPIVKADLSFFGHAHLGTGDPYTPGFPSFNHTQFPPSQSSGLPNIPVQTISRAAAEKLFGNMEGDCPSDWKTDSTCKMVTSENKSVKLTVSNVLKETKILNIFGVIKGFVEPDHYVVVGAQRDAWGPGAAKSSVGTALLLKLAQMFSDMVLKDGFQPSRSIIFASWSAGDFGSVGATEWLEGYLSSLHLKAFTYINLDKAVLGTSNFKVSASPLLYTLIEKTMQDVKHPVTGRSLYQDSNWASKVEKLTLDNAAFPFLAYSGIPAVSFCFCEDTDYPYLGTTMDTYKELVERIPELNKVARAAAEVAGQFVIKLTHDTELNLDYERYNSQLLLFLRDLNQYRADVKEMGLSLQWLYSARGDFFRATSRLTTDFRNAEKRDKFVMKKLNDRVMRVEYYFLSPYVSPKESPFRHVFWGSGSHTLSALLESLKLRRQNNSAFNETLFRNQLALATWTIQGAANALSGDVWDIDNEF
The assay is described as above.

The target of assay [4] is T2, recombinant cynomolgus monkey (Macaca …). The assay is described as follows: ELISA on plate-coated recombinant cTfR1 (target per paragraph 617), fluorescent anti-(H+L) IgG-A488 detection, % normalized RFUs. On the procedure:
(§1) To measure binding of humanized anti-TfR antibodies to TfR1, ELISAs were conducted. High binding, black, flat bottom, 96 well plates (Corning #3925) were first coated with 100 μL/well of recombinant huTfR1 at 1 μg/mL in PBS and incubated at 4° C. overnight. Wells were emptied and residual liquid was removed. Blocking was conducted by adding 200 μL of 1% BSA (w/w) in PBS to each well. Blocking was allowed to proceed for 2 hours at room temperature on a shaker at 30) rpm. After blocking, liquid was removed and wells were washed three times with 300 μL of TBST. Anti-TfR1 antibodies were then added in 0.5% BSA/TBST in triplicate in an 8 point serial dilution (dilution range 5 μg/mL-5 ng/mL). A positive control and isotype controls were also included on the ELISA plate. The plate was incubated at room temperature on an orbital shaker for 60 minutes at 300 rpm, and the plate was washed three times with 300 μL of TBST. Anti-(H+L)IgG-A488 (1:500) (Invitrogen #A11013) was diluted in 0.5% BSA in TBST, and 100 μL was added to each well. The plate was then allowed to incubate at room temperature for 60 minutes at 300 rpm on orbital shaker. The liquid was removed and the plate was washed four times with 300 μL of TBST. Absorbance was then measured at 495 nm excitation and 50 nm emission (with a 15 nm bandwidth) on a plate reader. Data was recorded and analyzed for $EC50$. […]
For orientation: In an ELISA, binding on a coated surface is turned into a signal by an enzyme label.

Assay [5] concerns the target T1, recombinant human TfR1 (transferrin …). Nature of the assay: ELISA on hTfR1, unconjugated Fab, % normalized RFUs.
The target is the same in assay [6]. The assay is described as follows: Table 14, unconjugated Fab, d9 (after 9 days at 40 C); method not named.
For assay [7], the target named is T2, recombinant cynomolgus monkey (Macaca …). Described as above.
In assay [8] the target is T1, recombinant human TfR1 (transferrin …). The assay is described as follows: ELISA on plate-coated recombinant hTfR1, fluorescent anti-(H+L) IgG-A488 detection, % normalized RFUs. The method, then:
To measure binding of humanized anti-TfR antibodies to TfR1, ELISAs were conducted. High binding, black, flat bottom, 96 well plates (Corning #3925) were first coated with 100 μL/well of recombinant huTfR1 at 1 μg/mL in PBS and incubated at 4° C. overnight. Wells were emptied and residual liquid was removed. Blocking was conducted by adding 200 μL of 1% BSA (w/w) in PBS to each well. Blocking was allowed to proceed for 2 hours at room temperature on a shaker at 30) rpm. After blocking, liquid was removed and wells were washed three times with 300 μL of TBST. Anti-TfR1 antibodies were then added in 0.5% BSA/TBST in triplicate in an 8 point serial dilution (dilution range 5 μg/mL-5 ng/mL). A positive control and isotype controls were also included on the ELISA plate. The plate was incubated at room temperature on an orbital shaker for 60 minutes at 300 rpm, and the plate was washed three times with 300 μL of TBST. Anti-(H+L)IgG-A488 (1:500) (Invitrogen #A11013) was diluted in 0.5% BSA in TBST, and 100 μL was added to each well. The plate was then allowed to incubate at room temperature for 60 minutes at 300 rpm on orbital shaker. The liquid was removed and the plate was washed four times with 300 μL of TBST. Absorbance was then measured at 495 nm excitation and […] (with a 15 nm bandwidth) on a plate reader. Data was recorded and analyzed for $EC50$. […] ELISA measurements were conducted using cynomolgus monkey (Macaca fascicularis) TfR1 (cTfR1) according to the same protocol described above for hTfR1, and results are shown in FIGS. 9B, 9D, and 9F.

Assay [9] has the same target. The assay is described as follows: Biacore, d0; TfR1 species not stated. A general note: In SPR one partner is held on a chip, and binding of the other changes the refractive index at the surface.
For assay [10] the target is unchanged. Nature of the assay: Table 14, unconjugated Fab, d0; method not named (values equal ELISA row of Table 13).
For assay [11], the target named is T2, recombinant cynomolgus monkey (Macaca …). The assay is described as above.
Assay [12] has the same target. Nature of the assay: ELISA on cTfR1, unconjugated Fab, % normalized RFUs.
Assay [13] addresses T1, recombinant human TfR1 (transferrin …). The assay is described as follows: kinetic analysis (Biacore), Table 7; TfR1 species not stated.
The target is the same in assay [14]. Nature of the assay: ELISA on hTfR1, unconjugated Fab, % normalized RFUs. This is another data set of the same source.
Assay [15] concerns the target T2, recombinant cynomolgus monkey (Macaca …). The assay is described as follows: ELISA on cTfR1, unconjugated Fab, % normalized RFUs.
The target in assay [16] is T1, recombinant human TfR1 (transferrin …). Nature of the assay: ELISA on plate-coated recombinant hTfR1, fluorescent anti-(H+L) IgG-A488 detection, % normalized RFUs. The method, then: as §1, with “Absorbance was then measured at 495 nm excitation and 50 nm emission (with a 15 nm bandwidth) on a plate reader.” left out
The source holds these as a separate data set.

Assay [17] deals with T2, recombinant cynomolgus monkey (Macaca …). The assay is described as follows: ELISA on plate-coated recombinant cTfR1, fluorescent anti-(H+L) IgG-A488 detection, % normalized RFUs. On the procedure: as §1, with “Absorbance was then measured at 495 nm excitation and 50 nm emission (with a 15 nm bandwidth) on a plate reader.” left out

Where only a bound is given, the exact number is not on record here.

B1: humanized anti-TfR Fab 5H12 VH5 (C33Y)/Vκ4 (Fab, V domains shown)
VH: QVQLVQSGAEVKKPGASVKVSCKASGYSFTDYYINWVRQAPGQGLEWMGWIYPGSGNTRYSERFKGRVTITRDTSASTAYMELSSLRSEDTAVYYCAREDYYPYHGMDYWGQGTLVTVSS
VL: DIVMTQSPDSLAVSLGERATINCRASESVDGYDNSFMHWYQQKPGQPPKLLIFRASNLESGVPDRFSGSGSGTDFTLTISSLQAEDVAVYYCQQSSEDPWTFGQGTKLEIKR
notes: also called 5H12 (VH5-C33Y/Vk4)
In general, Kd refers to the equilibrium constant for the complex coming apart. One may read the EC50 as the concentration that produces a half-maximal response. The term koff denotes the rate constant with which the complex falls apart. Usually kon stands for the rate constant with which the complex forms. With B1, the Kd in [1] was 1.33 nM; in [9], 0.626 nM; in [13], 0.626 nM. Also, the EC50 in assay [2] was 2.8 nM; in [3], 3.3 nM; in assay [4] it was 3.4 nM; in assay [5] it was above 100 nM; in assay [8], above 100 nM; in assay [12], 3.4 nM. The Binding affinity was found to be 1730 nM in assay [6], 0.26 nM in assay [7], 2.8 nM in [10] and 3.3 nM in assay [11]. For the same molecule, the koff in [13] turned out to be 0.000117 s⁻¹. For the same molecule, the kon in assay [13] was 186000 M⁻¹ s⁻¹.

B2: humanized anti-TfR Fab 5H12 VH5 (C33Y)/Vκ3 (Fab, V domains shown)
VH: QVQLVQSGAEVKKPGASVKVSCKASGYSFTDYYINWVRQAPGQGLEWMGWIYPGSGNTRYSERFKGRVTITRDTSASTAYMELSSLRSEDTAVYYCAREDYYPYHGMDYWGQGTLVTVSS
VL: DIVLTQSPDSLAVSLGERATINCRASESVDGYDNSFMHWYQQKPGQPPKLLIFRASNLESGVPDRFSGSGSRTDFTLTISSLQAEDVAVYYCQQSSEDPWTFGQGTKLEIKR
notes: also called 5H12 (VH5-C33Y/Vk3)
Turning to B2, the figures for the Kd in assay [1], in assay [9] and in [13] were 1.07 nM, 0.627 nM and 0.627 nM, respectively. Also, the EC50 in assay [2] is 6.3 nM; in assay [3], 2.1 nM; in assay [4] it was 2 nM; in assay [5], above 100 nM; in assay [8], above 100 nM; in [12], 2 nM. Further, the Binding affinity amounted to 71.9 nM in [6], 0.69 nM in assay [7], 6.3 nM in assay [10] and 2.1 nM in assay [11]. The koff in [13] came out at 0.000122 s⁻¹. In addition, the kon in [13] turned out to be 195000 M⁻¹ s⁻¹.

B3: humanized anti-TfR Fab 3M12 VH3/Vκ2 (Fab, V domains shown)
VH: QVQLQESGPGLVKPSQTLSLTCSVTGYSITSGYYWNWIRQPPGKGLEWMGYITFDGANNYNPSLKNRVSISRDTSKNQFSLKLSSVTAEDTATYYCTRSSYDYDVLDYWGQGTTVTVSS
VL: DIQMTQSPSSLSASVGDRVTITCRASQDISNFLNWYQQKPGQPVKLLIYYTSRLHSGVPSRFSGSGSGTDFTLTISSLQPEDFATYFCQQGHTLPYTFGQGTKLEIKR
notes: also called 3M12 (VH3/Vk2)
In the case of B3, the Kd came to 0.567 nM in assay [1], 0.395 nM in [9] and 0.395 nM in assay [13]. In addition, the EC50 worked out at 0.8 nM in assay [2]; 9.9 nM in assay [3]; 7.2 nM in assay [14]; 25.5 nM in [15]; 7.2 nM in assay [16]; 25.5 nM in assay [17]. Besides, the Binding affinity came out at 0.98 nM in assay [6], 19.5 nM in assay [7], 0.8 nM in [10] and 9.9 nM in [11]. For the same molecule, the koff in assay [13] turned out to be 0.000104 s⁻¹. The kon in assay [13] came out at 264000 M⁻¹ s⁻¹.
